Reference: the supplement of paper PMC10567573

B1: MATN2 (parent)
chain: TDDSYSCHCLKGFTLNPDKKTCRR
B2: FBXO39 (parent)
chain: PSRVHASEVESAVWYVKKFGRYLE

Variants of: B1
Assay: protein stability index of a GFP-peptide fusion (GPS, HEK-293T) (PSI 1-6); higher = more stable
Conditions: c terminus: a fixed tail appended
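Also: lentivirally expressed fusions sorted by FACS into six bins by GFP to DsRed ratio, PSI derived from sequencing read proportions per bin multiplied by bin number.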

Protein stability index of substitutions, site by site:
D2: T 2.08, P 1.66, M 2.09, I 2.02, N 2.32, Y 1.26, R 2.29, Q 1.82, A 1.88, S 2.11, K 2.85, C 1.88, G 2.98, L 2.81, H 2.15, F 1.41, W 2.24, E 1.98
D3: K 1.93, A 2.24, S 2.24, T 2.01, M 2.31, Q 2.13, P 2.93, R 2.2, Y 1.76, C 2.17, V 2.41, F 1.67, H 2.15, G 2.36, E 1.73, N 2.1, L 2.36, I 1.91, W 1.41
Y5: I 2.06, H 2.66, T 2.58, W 2.23, M 3.58, G 2.69, K 2.65, F 2.36, V 2.86, S 2.66, P 2.14, A 3.04, N 3.36, L 3.53, Q 3.42, E 2.74, R 2, D 2.72
S4: D 2, H 2.66, K 2.56, E 2.79, N 1.23, G 1.88, C 1.8, F 1.83, V 2.22, Q 2.3, A 1.34, T 2.04, I 2.87, P 2.64, Y 1.77, W 1.81, R 2.03, M 2.22, L 1.84
T1: Q 1.75, C 2, V 3.42, I 2.1, S 2.63, R 2.95, A 2.47, E 2.09, W 2.35, N 1.86, H 2.7, K 1.75, L 2.36, M 2.47, P 2.81, F 2.21, G 2.71, D 2.55

Variants of: B2
Assay: as above
Conditions: c terminus: a fixed tail appended

Protein stability index, by site and new letter:
K17: Y 2.66, R 3.25, T 1.77, W 1.61, L 2.52, I 2.39, P 1.89, D 2.25, F 1.87, A 2, G 2.57, H 2.1, S 2.84, N 2.82, E 2.35, C 1.34, M 1.91, Q 2.27, V 1.9
V13: Y 1.43, P 3.59, M 2.13, A 2.44, D 2.9, T 1.96, W 1.6, R 2.17, L 2.5, S 2.57, G 2.4, N 3.09, E 2.96, F 1.45, I 1.61, K 1.78, Q 2.73, C 1.95, H 2.72
R21: H 2.04, N 2.3, Y 1.65, S 2.22, A 1.74, P 1.98, Q 2.09, V 2.42, E 2.5, M 1.37, K 1.87, G 2.42, D 3, T 2.08, L 1.53, C 1.47, F 1.9, W 2.08, I 2.19
V16: S 3.08, D 3.18, E 2.96, W 2.27, N 3.18, C 2.65, A 2.4, F 1.83, T 2.43, K 3.01, H 3.32, G 2.81, L 1.87, I 1.72, R 3.17, P 2.54, Y 2.44, Q 2.5, M 2.65
W14: F 1.73, S 3.22, R 2.58, I 2.38, G 2.89, K 2.67, V 2.64, L 2.32, E 2.8, P 2.96, N 3.68, M 3.3, A 2.96, Q 2.87, D 3.84, H 3.44, T 3.68, Y 2.18, C 3.17
E24: K 2.13, F 1.94, V 1.74, G 1.94, Y 2.2, C 2.42, P 2.26, R 2.22, M 2.07, Q 1.99, D 1.9, I 2.01, A 1.59, S 1.83, N 2.06, W 2.33, H 1.94, L 1.54, T 2.55
K18: T 1.73, V 1.75, N 1.88, Q 1.75, P 2.07, F 1.95, Y 1.47, H 1.89, G 2.02, S 1.81, M 1.82, I 2.93, L 1.79, C 2.36, A 1.65, E 2.37, W 2.4, D 2.33, R 1.5
L23: R 2.5, V 2.49, K 3.07, Q 2.74, D 2.9, T 2.32, H 2.45, M 2.09, I 2.17, S 2.76, A 2.59, E 2.26, C 2.26, F 2.05, N 2.5, G 1.48, P 2.58, Y 2.53, W 2.08
G20: I 1.91, N 2.38, Y 1.46, S 2.04, R 2.1, L 1.75, F 1.55, W 2.97, E 2.95, D 2.27, P 1.64, T 1.28, Q 2.55, H 1.62, A 3.14, K 2.19, V 1.96, M 2.09
Y15: D 3.73, N 3.31, H 2.65, K 2.53, P 2.61, R 2.21, W 1.15, C 1.74, S 2.4, E 2.45, L 2.34, G 2.84, T 2.09, Q 2.74, I 1.58, F 1.42, V 1.41, M 2.9, A 2.07
F19: L 2.22, E 3.76, P 2.72, Q 2.79, S 2.42, T 2.55, M 2.14, V 1.98, A 2.77, R 2.88, Y 2.5, K 3.32, D 3.27, I 1.88, H 3.06, N 3.43, G 3.17, C 2.04, W 2.12
Y22: N 2.71, H 2.69, P 2.67, V 2.28, T 2.03, D 2.89, A 2.39, L 1.62, F 1.91, C 2.44, K 3.58, M 2.1, R 2.98, I 1.85, W 3.81, G 2.85, S 2.58, E 2.58, Q 2.74
A12: G 2.02, I 2.34, H 2.83, N 3.01, P 2.25, S 2.18, V 1.29, W 2.98, M 2.16, R 2.54, Y 1.65, Q 3.27, K 2, T 2.08, L 2.08
